Test: soluble on expression in E. coli; label from the status in PepcDB or PDB records

Sequence	soluble on expression in E. coli
MEDGRTSDKVLEKIQEKIFSGEWKPGQKIMSETKLAEDLNVSRVSVREAIEKLAAFNIVSKKKGGGTFINDLGPSVYLNSLLPMLILNRDNYLEILEFRLITEPESAKLCAERCDDELIISLEKIYDNMKNYKDDIQKFTKEDLNFHTKIAEGTKNSLIIKINELLMNILEYHQRGLYETLGPKGGICEHKFILDAIKNRDSELAFIYSRRHAERTINDLKKLQT	not soluble
MSLQQPLAYRMRPRHLDEVVGQQHLVGPGKIIRRMVEAKMLSSMILYGPPGTGKTSIASAIAGSTNYAFRMLNAATDTKKDLQIVAEEAKMSGTVILLLDEIHRLDKTKQDFLLPHLENGRIIMIGATTENPYITINPAIRSRTQIFEVKPLTETDIQQAIQEALTDSTRGLGDYPVHLEEKALQHLTRATNGDLRSALNGLELAVKSTPKNEQGEIKITLPIIEECVQRKALTHVKDGDAHYDVISAFQKSIRGSDVDAALHYLGRLVEAGDLPIICRRLMVIAYEDIGLGNPAAAARTVTAVQAAEKLGFPEARIPLASVVIDLCLSPKSNSAVTAIDAALADIRQGSVGDVPDHLRDAHYAGAKELNRGIGYQYPHNFENGWVNQQYLPDKLKEARYYEPIDIGKYEQALHQQLKRIQEWKEGHHHHHH	soluble
MKNQLIDRLTRYTTIDTQSDPKSTTTPSTEKQWDLLHLLEKELQQLGLPTDLDENGYLFATLESNIDVDVPTVGFLAHVDTSPDFNASNVKPQIIENYDGKPYKLGNTKRVLDPKVFPELNSLVGHTLMVTDGTSLLGADDKAGIVEIMEAICYLQEHPEIKHGTIRIGFTPDEEIGRGPHKFDVDRFNADFAYTMDGSQYGELQYESFNAAEAVITCHGVNVHPGSAKNAMVNAIRLGEQFDSLLPDSEVPERTEGYEGFYHLMNFEGTVEKATLQYIIRDHDKKQFELRKKRILEIRDDINAHFENYPVKVDISDQYFNMAEKILPLPHIIDIPKRVFAKLDIPANTEPIRGGTDGSQLSFMGLPTPNIFTGCGNFHGPYEYASIDVMEKAVQVIIGIVEDIAENH	not soluble
MVLSCRVVDCGGLKLKENQTLLLLVSTIHNSSEVGKLSIDAEEKRSKEWLEMPCAEGMLSLKLTLWQDLLKGINSVFHGQVRVDVDENWKSGPAKWFYLRSKANEDGEGGEDGGDIGDATVKVTYQIDHILRMQVYKPLLDLLFLAGDVQPLTASLVAVIEALPKVELGPVSRSLVELMAQSDRIRPVLSSLYVNSILKCQDENTLFRGQSLSGKMLFEILTTYGKMYLITTLKPVVDKIYKERKNCEVDPARVAVGASLEKNRNNLLVYFQMLFERVTTSSTNCPHLIKQLLYDLRNVVGTHSSRSGVQRLAVSSFVIMRFFAAAILNPKAFEIRKDQPDLRVSRTLLLLSKLLQRLSNCSVSEGPLSSKEIWLNGVFETVTSEQHKSVMASFLDNISLVGDRSEPQKCTVFKFGNLQQVDRSRLAWKKVLHYKKRYVQLTNTHLIWQKDVQCAPKGTVPLSDIKFVNVDNKNIITIVCETMQLQFEAPGGVEATDWLNAIERQRNRAAHEIAETPGEHFFVDAERHVDKIHTLLYKYRETMIEWRDQLQSNVELDEKTAPELLKASYVVEEERQSHKDSLIATLCSTIDVTDAIQLAHTEYEKENKVSRRIDAIITAKKRQKSFSVK	not soluble
MAHHHHHHMLTLNRRDKEICQELIRKNFTLSQIQSYNEPEYSGWVSRRRRVSNIFVWELNWLATSGNYLLCFSQKKDSCHPIKIMYLPEAIIRRCSMKEECCVGHPFVLEIVPCLHFVREEKGLFPVKPHEVHFSFENVEDLCGTIAFLAKISARHVRTASITFGPPTRVNHRIHLRAARGKNDFGLELLPLPMREWLLRQGITCAEMAGNETTALNCATTLYEVQMQRGMLEDLPPISEEGVTEKRYEDKAGVPPFPLPSENEGGALEPLLSAGDPESLFSDWERLDGGSQGEVFKAVRVVDGRKVAIKRITVRGDHKVPQSLVKEMSLLKALHHPNIVTLYDCYRKGKHLFLAMELMDGGKLTDLLIPSEGEPVEFTEAQLATLIREVLRALRCLHNARCVHRDVKSDNVLLSSNGEVKLGDFGFATLLTSPGGMRRTLVGTPYWMAPEVAGGKAYNDKADVWSAGILFLEMCDGQPPLMGMNPMRALLTVSTGPPPVMRTANRWSSLCREFASFLLVKDPARRPSVDDALRHPFIVKKAEPTCRFVATILQRRK	soluble
MKLKGKGIGKVVVEGEVIVSRKPLSFLGGVDPETGTITDPESDIKGESITGKILVFPKGKGSTVGSYILYALSKNGKGPKAIIVEEAEPIVTAGAIISGIPLITNVDISKLKTGMRVRINPQEGEVEILAEGNLLEHHHHHH	not soluble
RVTVMLAAFEGWNDAGEAASDALHYLNKLWDGKKVATVDAEEYYDFQFTRPTVRRTSSGARKVKWPSTRIYKAEVPDSNVDVVLVLGTEPSYRWRAYTTELLVHAEALKVDSVILVGALLADVPHSRPIPVSTTTEDSSLRERLNLEASQYEGPVGIVGVLAEFAMLAGLPTVSLWAAVPHYVAQPPSPKAQLAILHRIEDLLQVPLDSQALAEESEAWERGVDELATEDPEITAYVRQLEEAKDTADLPE	not soluble
MHNKWYWTFKHILWGPILRVYNRPEIHGLENIPDKGSAILASNHQAVMDSFYLPLMSPRQITFPAKQEYFTTPGFVGSLQRWFFTAVGQVPIDRTSKSASDDLLKTARMVLDRGDLFGIYPEGTRSPDGRIYRGKTGMARIALDTNVAVVPIAMIGSRDANPIGTWIPRPHKVVIKVGEAISPRSFVSDAGYDPDSYEAMRFFTDHVMKVLADLTGQQYVDLYAADVKKSLAAGKGYPEGA	not soluble
PLGSDSAKLIFINQINDCKDGQKLRFLGCVQSYKNGILRLIDGSSSVTCDVTVVLPDVSIQKHEWLNIVGRKRQDGIVDVLLIRSAVGINLPRYRQMVSERQKCD	soluble
MHHHHHHLESSGDFSLLSSPINREKNGTEIVKFSIHPYKGTVIRLGEEILPFKVLEMDKNIALVEMAIPVYKDEKEIELKLSSPGFQNSSYRIRKPEELNEKLIALDKEGITHRFISRFKTGFQPKSVRFIDNTRLAIPLLEDEGMDVLDINSGQTVRLSPPEKYKKKLGFVETISIPEHNELWVSQMQANAVHVFDLKTLAYKATVDLTGKWSKILLYDPIRDLVYCSNWISEDISVIDRKTKLEIRKTDKIGLPRGLLLSKDGKELYIAQFSASNQESGGGRLGIYSMDKEKLIDTIGPPGNKRHIVSGNTENKIYVSDMCCSKIEVYDLKEKKVQKSIPVFDKPNTIALSPDGKYLYVSCRGPNHPTEGYLKKGLVLGKVYVIDTTTDTVKEFWEAGNQPTGLDVSPDNRYLVISDFLDHQIRVYRRDGF	soluble
MEALRLEGVSKRYGRRPVLEGVSLSVRPGEVYALAGPNGSGKTTLIRLATGLAFPTKGRAFLLGEDVHKSPAARRHLGAVVEAPAAFYPYLTGRENLRMHARLSGVEDEARIGEVLARLKLLAVADQKVEGYSLGQRQRLGLAAAILHRPKVLVLDEPTSGLDPEGVELVHRLLQELAREGVAILLSTHHLQEVARYAHRVGILGGGRLLDEVVLSGKEAYRLEAEPLEGALALLKTLPQVASARLQGRSVVFEGEPEAALRALLAEGYRVRALAPHRFDLLDYYQERVRHV	soluble
MSAAEEVDGLGVVRPHYGSVLDNERLTAEEMDERRRQNVAYEYLCHLEEAKRWMEACLGEDLPPTTELEEGLRNGVYLAKLGNFFSPKVVSLKKIYDREQTRYKATGLHFRHTDNVIQWLNAMDEIGLPKIFYPETTDIYDRKNMPRCIYCIHALSLYLFKLGLAPQIQDLYGKVDFTEEEINNMKIELEKYGIQMPAFSKIGGILANELSVDEAALHAAVIAINEAIDRRVAADTFTALKNPNAMLVNLEEGLAPTYQDVLYQAKQDKMTNAKNRTENSDRERDVYEELLTQAEIQGNVNKVNTSSALADISLALEQGCAVTLLKALQSLALGLRGLQTQNSDWYMKQLQSDLQQKRQSGQTDPLQKEEVQAGVDAANSAAQQYQRRKRPLAPGHRSVQGRAVVALCH	soluble
MKYIVNKSHNPAFNIALEAYAFRELVEEDELFILWINEPAIIIGKHQNTIQEINKEYIDEHGIHVVRRLSGGGAVYHDLNNLNYTIISNKTAEGAFDFKTFSQPVIATLADLGVTANFTGRNDIEIDGKKICGNAQAYYKGRMMHHGCLLFDVDMTVLGDALKVSKDKIESKGVKSVRARVTNILNELPEKITVEEFSDKILAKMKETYPDMTEYVLSEDELAKIEQSAKEQFGSWDWTYGKAPEYTIERNVRYPAGKISTFANVENSIIKNLKIYGDFFGIKDVQDIENLLIGCKYEYRDVFERLKTIDTTQYFSRMTVEEVAKAIVS	not soluble
